These results are taken from article PMC4813486.

Assay [1] has as its target full-length β2-microglobulin (UniProt P61769). Put plainly: native MS; ion mobility MS, 15 μM protein, 100 mM ammonium acetate, pH 5.
Assay [2] shares this target. Kind of assay: native MS; ion mobility MS, 30 μM protein, 100 mM ammonium acetate, pH 5 (data not shown).
The target is the same in assay [3]. Kind of assay: cross-linking; BS3-d0/d4 1:1, 25 °C, 1 h; gel electrophoresis (NuPAGE); bands digested in-gel with trypsin; LC-MS/MS.

“And” between values parts separate entries of the source, which are not always exact repeats. Equal values may be shown once.

As to “full-length β2-microglobulin (from UniProt P61769 21-119) (natural protein)”, the stoichiometry N (usually the number of molecules, sites or subunits per partner or assembly) in assay [1] is 2; in assay [2] it was 3 and 4; in assay [3] it was 2 and 3 and 4.
